Data as given in US20210171652A1 (University of Pennsylvania, published 2021).

T1: human RhCE protein (RHCE; Rh17/Hr0 epitope) on human red blood cells (human, UniProt P18577 2-417)
T1 construct: Target on intact human RBCs of donors
T1 chain: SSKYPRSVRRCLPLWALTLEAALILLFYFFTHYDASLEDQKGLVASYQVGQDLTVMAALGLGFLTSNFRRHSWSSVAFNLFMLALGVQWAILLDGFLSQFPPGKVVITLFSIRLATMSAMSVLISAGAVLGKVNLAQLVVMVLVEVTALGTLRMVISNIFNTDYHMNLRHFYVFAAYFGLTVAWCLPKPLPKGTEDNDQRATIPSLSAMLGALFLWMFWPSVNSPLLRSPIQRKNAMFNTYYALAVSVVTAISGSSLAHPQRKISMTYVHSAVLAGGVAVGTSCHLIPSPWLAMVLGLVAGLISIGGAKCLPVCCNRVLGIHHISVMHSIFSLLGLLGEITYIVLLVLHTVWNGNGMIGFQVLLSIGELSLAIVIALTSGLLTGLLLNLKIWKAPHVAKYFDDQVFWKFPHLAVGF


How the values were obtained:
[1] = target: T1, human RhCE protein (RHCE; Rh17/Hr0 …); experiment: Western blot of reduced, denatured proteins from human erythrocyte ghosts
Procedure: (§1) A Western blot was performed to assess the binding of KP3-17 (anti-Rh17) to proteins extracted from mouse and human erythrocyte ghosts. Because proteins were denatured in reducing SDS-PAGE buffer prior to gel electrophoresis, the presence of binding is due to interaction with linear, and not conformational, epitopes. This is in contrast to anti-RhCE mAbs described by other groups, which recognize conformational epitopes.
as §1, with “Rh17” for “KP3-17 (anti-Rh17)”, “ghosts (FIG. 25).” for “ghosts.”

[2] = target: T1, human RhCE protein (RHCE; Rh17/Hr0 …); experiment: Fab/phage binding assays on human RBCs incl. rare RBC types lacking conserved antigens
Procedure: An IgG Fab/phage display library was prepared from the peripheral blood lymphocytes of a hyperimmunized macaque using homologous human V-region oligonucleotides (Siegel D L, R. M., Lee H, Blancher A., Production of large repertories of macaque mAbs to human RBCs using phage display. Transfusion, 1999. 39(S10): p. 92S, which is incorporated herein by reference). Fab/phage specific for human RBCs were isolated by panning on intact human RBCs. Monoclonal Fab/phage were grown to produce antibodies for immunoassays and their corresponding DNA was extracted for sequencing. To identify target epitopes, antibodies were screened against RBCs of known serologic phenotypes, including rare cells lacking highly conserved antigens, using standard immunohematologic techniques (Roback, J. D., Technical Manual. 2014: American Association of Blood Banks (AABB), which is incorporated herein by reference.)
Using antibody phage display, we identified non-human-primate Fab antibody fragments to antigenic determinants on human RBCs. By panning phage libraries on human RBCs, we produced a Fab/phage preparation with >10⁷ RBC-specific clones capable of agglutinating human RBCs. By performing binding assays against rare RBC types lacking highly conserved antigens and epitopes, we identified the target antigens of >30 of these clones. At least 34 clones bound the Wright b (Wrb) epitope formed by a Band 3/GPA interaction, present on the RBCs of essentially 100% of the human population. The Wrb epitope, determined by the protein sequence of Band 3, is a site of association between Band 3 with GPA, and GPA expression is simultaneously required for its presence on the membrane (Huang C H, Reid M E, Xie S S, Blumenfeld 00. Human red blood cell Wright antigens: a genetic and evolutionary perspective on glycophorin A-band 3 interaction. Blood. 1996; 87(9):3942-3947). At least 3 other clones bound to a highly-conserved epitope Rh17(Hr0) on human RhCE protein, also present on essentially 100% of the human population. Both these targets are specific for erythroid lineage (Rojewski M T, Schrezenmeier H, Flegel W A. Tissue distribution of blood group membrane proteins beyond red cells: evidence from cDNA libraries. Transfus Apher Sci.

[3] = target: T1, human RhCE protein (RHCE; Rh17/Hr0 …); experiment: dissociation of 125I-labelled protein from saturated human RBCs
Procedure: (§2) Recombinant proteins were radiolabeled with Na¹²⁵I (Perkin Elmer, Exton, Pa.) using pre-formulated iodination reagent (Pierce Iodination Reagent, Thermo Fisher Scientific, Carlsbad, Calif.) per the manufacturer's protocol. Radiochemical purity was verified by instant thin layer chromatography on silica and was typically >95%. Radiolabeled proteins were added to human RBCs at 0.02% hematocrit in PBS with 2% human AB serum. Binding was allowed to reach equilibrium over 4 hours at 37 degrees C. After binding, cell suspensions were rapidly washed at least four times with cold PBS. The resulting cell pellet was counted using a Perkin Elmer Wizard2 gamma counting system. Dissociation of the fusion proteins was assessed using RBCs saturated with radiolabeled proteins, washing unbound ligands, and placing in dilute suspensions prior to measurement of bound ligand at specified time points. Similar binding experiments were performed with fluorescently-labeled recombinant proteins and cells were analyzed by flow cytometry (Accuri C6, BD Biosciences, San Jose, Calif.). Fluorescently labeled proteins were produced by reaction with amine-reactive derivatives of fluorescent dyes AlexaFlour488 and AlexaFlour647 (typically 10- to 20-fold excess at pH 8) and purified using 10,000 MWCO centrifugal filter devices (EMD Milipore, Billerica, Mass.).

[4] = target: T1, human RhCE protein (RHCE; Rh17/Hr0 …); experiment: direct binding of 125I-labelled protein to human RBCs, 4 h at 37 C
Procedure: as §2

| Binder | binding result [2] | also measured |
| --- | --- | --- |
| KP3-17 (anti-Rh17), as used in Example 8 (antibody, V domains shown) VH: EVQLLESGPGLLKPSETLSLTCAVSGAPISNYWWSWIRQSPGKGLEWIGEIDGSIYTTYYNPSLKSRVAISKDTSKNRLSLKLTSVTAADTAVYYCAREGQNPLVPTYGSTGFGLDFWGHGLAVTVSS VL: AAELTQSPSSLSASVGDRVTITCQASQGISSWLAWYQQKPGKAPKLLIYKASSLQSGVPSRFSGSGSGTDFTLTISSLQSEDFATYYCQQYSSSPRTFGQGTKVEIK | – | binding result [1]: binds |
| KP3-17 Fab/phage clone (anti-RHCE, Rh17) (Fab, V domains shown) VH: EVQLLESGPGLLKPSETLSLTCAVSGAPISNYWWSWIRQSPGKGLEWIGEIDGSIYTTYYNPSLKSRVAISKDTSKNRLSLKLTSVTAADTAVYYCAREGQNPLVPTYGSTGFGLDFWGHGLAVTVSS VL: AAELTQSPSSLSASVGDRVTITCQASQGISSWLAWYQQKPGKAPKLLIYKASSLQSGVPSRFSGSGSGTDFTLTISSLQSEDFATYYCQQYSSSPRTFGQGTKVEIK | binds | – |
| aRh17 scFv (anti-RhCE), clone KP3-17 (scFv, radio-iodinated (125I) or amine-labelled with AlexaFluor 488/647 in the binding assays; sites not stated, scFv produced as H2N-VH-(GGGGS)3-VL-FLAGx3-COOH in E. coli periplasm (pBAD/gIII); Macaque-derived; also called anti-Rh17 scFv; aRHCE scFv; not shown: C-terminal FLAGx3 tag) scFv: EVQLLESGPGLLKPSETLSLTCAVSGAPISNYWWSWIRQSPGKGLEWIGEIDGSIYTTYYNPSLKSRVAISKDTSKNRLSLKLTSVTAADTAVYYCAREGQNPLVPTYGSTGFGLDFWGHGLAVTVSSGGGGSGGGGSGGGGSAAELTQSPSSLSASVGDRVTITCQASQGISSWLAWYQQKPGKAPKLLIYKASSLQSGVPSRFSGSGSGTDFTLTISSLQSEDFATYYCQQYSSSPRTFGQGTKVEIK | – | koff [3]: 2e-05 s⁻¹; Kd [4]: 41.4 nM |
| KP3-11 Fab/phage clone (anti-RHCE, Rh17) (Fab, V domains shown) VH: EVQLLESGPGLVKPSETLSLTCGVSGASISNYWWSWIRQSPGKGLEWIGEIDGSTYSTHYNPSLKGRVTISKDASKNQLSLRLTSVTAADTAVYYCAREGQDPLAPTLATSGSGLDSWGRGLVVSVSS VL: ELQMTQSPSSLSASLGDRVTITCRASENVNNYLHWYQQKPGKAPKLLIYAASTLQSGVPSRFSGSGSGTDFTLTISSLQPEDVATYYCQHSYGTPLTFGGGTKVEIK | binds | – |
| KP3-14 Fab/phage clone (anti-RHCE, Rh17) (Fab, V domains shown) VH: EVQLLESGPGLGKPSETLSLTCGVSGASISNYWWSWIRQSPGKGLEWIGEIDGSTYSTHYNPSLKGRVTISKDASKNQLSLRLTSVTAADTAVYYCAREGQDPLAPTLATSGSGLDSWGRGLVVTVSS VL: ELQMTQSPSALSASVGDRVTISCRASQDIYSNLAWYQQKPGKAPKLLIYGASRLQSGIPSRFSASGAGTEFTLTISGLQPEDSAVYYCQEVHRNPFTFGPGTKLDIK | binds | – |
